Reference: patent US20250295801A1, “CD25 ANTIBODIES, ANTIBODY DRUG CONJUGATES, AND USES THEREOF” (Seagen Inc., priority 2024, published 2025)
Read-outs that look alike come from different tables or passages of the source.

How the values were obtained:
[1] = molecular target: T1, mouse CD25 on Yac-1 mouse lymphoma cells (mouse) (UniProt P01590); assay: saturation binding by flow cytometry on Yac-1 cells
T1 sequence (looked up): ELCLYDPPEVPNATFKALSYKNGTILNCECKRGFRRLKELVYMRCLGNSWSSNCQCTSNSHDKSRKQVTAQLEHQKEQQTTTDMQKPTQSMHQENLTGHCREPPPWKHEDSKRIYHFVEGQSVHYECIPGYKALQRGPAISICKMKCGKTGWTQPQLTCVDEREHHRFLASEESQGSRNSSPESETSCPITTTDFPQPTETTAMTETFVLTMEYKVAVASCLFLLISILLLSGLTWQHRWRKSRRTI

[2] = molecular target: T2, recombinant cynomolgus CD25 (cynomolgus, UniProt H6WS54 22-213); assay: ELISA on plate-coated cynomolgus CD25
T2 construct: also called cyno CD25; cynomolgus CD25/IL2RA
T2 sequence: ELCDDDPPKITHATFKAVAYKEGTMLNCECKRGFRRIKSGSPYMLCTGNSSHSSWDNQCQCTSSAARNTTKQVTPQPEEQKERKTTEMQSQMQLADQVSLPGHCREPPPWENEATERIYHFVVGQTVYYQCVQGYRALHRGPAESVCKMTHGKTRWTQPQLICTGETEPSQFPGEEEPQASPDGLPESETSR
Experimental: (§1) Saturation binding ELISA experiments were performed using soluble recombinant antigens, which were diluted to an appropriate concentration in 50 mM carbonate buffer, pH 9.6. To each well of a 96- or 384-well Maxisorb ELISA plate was added 100 μL of soluble antigen. The plate was sealed and stored at 4° C. overnight. The plate was then washed 3-5 times with PBS-T was buffer (PBS, pH 7.4+0.05% Tween-20). The wells were blocked using 300 μL/well of PBS-T buffer containing BSA for 1 hour at room temperature, then washed 3-5 times with PBS-T. Dilutions of antibodies were prepared in blocking buffer and added to each well in a volume of 100 μL. The antibodies were incubated for 1 hour at room temperature, and then washed 3-5 times with PBS-T. HRP-conjugated secondary antibodies (anti-human Fc) were then added and incubated for 1 hour at room temperature. The plate was washed 3-5 times with PBS-T. The ELISA was developed by adding 100 μL of TMB solution and incubating for 3-15 min at room temperature. To stop the reaction, 100 μL of 1 N sulfuric acid was added to each well. The absorbance at 450 nm was determined using a Spectramax 190 plate reader (Molecular Biosciences) and the data plotted using GraphPad Prism 6.

[3] = molecular target: T3, human CD25 on CD25 expressing cells (human, UniProt P01589 22-272); assay: saturation binding by flow cytometry on Karpas 299 cells (CD25: 123,000 per cell), GeoMean MFI
T3 construct: Endogenous CD25 on human lymphoma lines (L540cy, Karpas-299) and on human Treg cells; also called CD25 on L540cy cells; CD25 on Karpas-299 cells
T3 sequence: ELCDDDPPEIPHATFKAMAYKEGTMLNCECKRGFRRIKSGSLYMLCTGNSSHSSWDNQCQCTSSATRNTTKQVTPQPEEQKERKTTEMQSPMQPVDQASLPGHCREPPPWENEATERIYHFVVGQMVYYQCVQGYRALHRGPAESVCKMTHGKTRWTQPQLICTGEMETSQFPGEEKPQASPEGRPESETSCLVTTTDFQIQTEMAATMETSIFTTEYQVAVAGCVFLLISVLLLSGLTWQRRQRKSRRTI
Experimental: (§2) For cellular binding analysis by FACS, cells expressing the target protein of interest (2×10⁵) were treated with a serial dilution of indicated antibody in staining buffer (PBS, 5% FBS, 0.2% NaN₃). Samples were incubated for 1 hour on ice and washed twice with ice-cold staining buffer. Cells were resuspended with anti-human IgG-AF488 or IgG-AF647 (JacksonImmunoResearch), 1:200 dilution in staining buffer) for 1 hour on ice. Cells were washed twice with ice cold staining buffer and resuspended in staining buffer. Labeled cells were examined by flow cytometry on an Invitrogen Attune NxT flow cytometer gated to exclude nonviable cells, and the data analyzed using FlowJo10 software. When determined, the KD was calculated using GraphPad Prism 6 using non-linear regression.

[4] = tested on: recombinant cyno CD25; assay: Saturation binding analysis by ELISA; set-up: species or system cynomolgus; details: compared with human CD25, FIG. 1A, 1B, 7
Experimental: Saturation binding ELISA experiments were performed using soluble recombinant antigens, which were diluted to an appropriate concentration in 50 mM carbonate buffer, pH 9.6. To each well of a 96- or 384-well Maxisorb ELISA plate was added 100 μL of soluble antigen. The plate was sealed and stored at 4° C. overnight. The plate was then washed 3-5 times with PBS-T was buffer (PBS, pH 7.4+0.05% Tween-20). The wells were blocked using 300 μL/well of PBS-T buffer containing BSA for 1 hour at room temperature, then washed 3-5 times with PBS-T. Dilutions of antibodies were prepared in blocking buffer and added to each well in a volume of 100 μL. The antibodies were incubated for 1 hour at room temperature, and then washed 3-5 times with PBS-T. HRP-conjugated secondary antibodies (anti-human Fc) were then added and incubated for 1 hour at room temperature. The plate was washed 3-5 times with PBS-T. The ELISA was developed by adding 100 μL of TMB solution and incubating for 3-15 min at room temperature. To stop the reaction, 100 μL of 1 N sulfuric acid was added to each well. The absorbance at 450 nm was determined using a Spectramax 190 plate reader ([…]) and the data plotted using GraphPad Prism 6.
Saturation binding analysis of CD25 antibody SG25Ab-9 and detuned CD25 antibody SG25Ab-9 YH98A on recombinant human and cyno CD25 was assessed by ELISA.

[5] = tested on: CD25 expressing cells; assay: Internalization into CD25 expressing cells; type: cell-based, human; details: FIG. 1E
[6] = molecular target: T4, recombinant human CD25 (human, UniProt P01589 22-213, limits assumed, biotinylated in the Octet kinetic assay (site not stated)); assay: saturation binding ELISA on recombinant human CD25
T4 construct: Soluble recombinant antigen; It was coated on plates for ELISA and used as bought biotinylated protein for BLI; The ELISA and BLI reagents may be different constructs; also called hCD25; CD25/IL2RA
T4 sequence: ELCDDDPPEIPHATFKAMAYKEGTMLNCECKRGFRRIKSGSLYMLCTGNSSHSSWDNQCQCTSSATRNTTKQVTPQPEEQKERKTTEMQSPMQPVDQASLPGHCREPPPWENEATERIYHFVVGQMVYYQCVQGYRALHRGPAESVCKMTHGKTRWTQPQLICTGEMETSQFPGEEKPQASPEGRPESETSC

[7] = molecular target: T4, recombinant human CD25; assay: saturation binding ELISA on recombinant human CD25; remark: listed apart in the source
Experimental: as §1

[8] = molecular target: T4, recombinant human CD25; assay: saturation binding ELISA on recombinant human CD25; remark: listed apart in the source
Experimental: as §1

[9] = molecular target: T2, recombinant cynomolgus CD25; assay: saturation binding ELISA on recombinant cynomolgus CD25
Experimental: as §1

[10] = molecular target: T4, recombinant human CD25; assay: saturation binding ELISA on plate-coated recombinant human CD25
Experimental: as §1

[11] = molecular target: T4, recombinant human CD25; assay: BLI kinetics (Octet RED384), biotinylated hCD25 on SAX tips, 1:1 global fit
Experimental: Biotinylated recombinant human CD25 was obtained from Acro Biosystems. Biotinylated hCD25 protein was loaded on SAX (High sensitivity streptavidin) tips at 0.8 nM loading density. Affinity measurements were run using a ForteBio Octet RED384 instrument in the kinetic buffer comprising 1×PBS, 0.1% BSA, 0.02% Tween20, pH 7.4. Association measurements were performed for 300 seconds and disassociation measurements were performed for 900 seconds. Each curve was reference subtracted and modeled using a 1:1 global fit. KD results are reported as kₐ divided by kd.

[12] = molecular target: T2, recombinant cynomolgus CD25; assay: saturation binding ELISA on plate-coated recombinant cynomolgus CD25
Experimental: as §1

[13] = molecular target: T3, human CD25 on CD25 expressing cells; assay: saturation binding by flow cytometry on L540cy cells (CD25: 55,000 per cell), MFI (Gmean)
Experimental: as §2
(§3) Saturation binding analysis was also performed using high CD25 expressing L540cy cells.

[14] = molecular target: T3, human CD25 on CD25 expressing cells; assay: as above; remark: listed apart in the source
Experimental: as §2, §3

[15] = molecular target: T4, recombinant human CD25; assay: saturation binding ELISA on recombinant human CD25; EC50 relative to SG25Ab-9
Experimental: as §1

[16] = molecular target: T2, recombinant cynomolgus CD25; assay: saturation binding ELISA on recombinant cynomolgus CD25; EC50 relative to SG25Ab-9
Experimental: as §1

B1: PC61 mIgG2a (antibody, from another filing, V domains shown)
VH: EVQLQQSGAELVRPGTSVKLSCKVSGDTITAYYIHFVKQRPGQGLEWIGRIDPEDDSTEYAEKFKNKATITANTSSNTAHLKYSRLTSEDTATYFCTTDNMGATEFVYWGQGTLVTVSS
VL: QVVLTQPKSVSASLESTVKLSCKLNSGNIGSYYMHWYQQREGRSPTNLIYRDDKRPDGAPDRFSGSIDISSNSAFLTINNVQTEDEAMYFCHSYDGRMYIFGGGTKLTV
Kd [1]: 0.7 nM

B2: CD25 antibody SG25Ab-4 (antibody, human IgG1, lambda, V domains shown)
VH: EVQLVQSGAEVKKPGESLKISCKGPEYSFNRYWIAWVRQRPGKGLEWMGIIYPGDSDARYSPTFEGHVTLSADMSLTTAYLQWSSLRASDTAMYYCARLGSYYAFDIWGKGTMVTVSS
VL: QSALTQPASVSGSPGQSITIFCTGTSSDVGGYNYVSWYQQHPGKAPKLMIYDVSKRPSGVSNRFSGSKSGNTASLTISGLQAEDEADYYCSSYTSSSTWVFGGGTQLTVLS
notes: IgG1 format; also called SGAb25-4
EC50 (read off the curve) [2]: ~0.1 nM | binding result [3]: binds

B3: SG25Ab-4: human anti-CD25 IgG1 antibody; VH SEQ ID NO: 31, VL SEQ ID NO: 32 (antibody, V domains shown)
VH: EVQLVQSGAEVKKPGESLKISCKGPEYSFNRYWIAWVRQRPGKGLEWMGIIYPGDSDARYSPTFEGHVTLSADMSLTTAYLQWSSLRASDTAMYYCARLGSYYAFDIWGKGTMVTVSS
VL: QSALTQPASVSGSPGQSITIFCTGTSSDVGGYNYVSWYQQHPGKAPKLMIYDVSKRPSGVSNRFSGSKSGNTASLTISGLQAEDEADYYCSSYTSSSTWVFGGGTQLTVL
binding to recombinant cynomolgus CD25 [4]: efficiently bound cynomolgus CD25 | internalization into CD25 expressing cells [5]: efficiently internalized into CD25 expressing cells

B4: CD25 antibody SG25Ab-9 (antibody, human IgG1, lambda, V domains shown)
VH: QVQLVQSGAEVKKPGESLKISCKGSGYSSTSYWIGWVRQMPGKGLEWMGIIYPGDSDTRYSPSFQGQVTISADKSISTAYLQWSSLKASDTAMYYCARLGSYYAFDIWGRGTMVTVSS
VL: QSALTQPASVSASPGQSITISCTGTSSDVGAYIYVSWYQQLSGKPPKLILYDVSKRPSGISDRFSGSKSGNTASLTISGLQADDEADYYCSSYTRSSTWVFGGGTQLTVLG
notes: Fully human antibody from a phage scFv library, expressed as IgG1 with a lambda light chain; HC and LC are the entries without signal peptide; also called SG25Ab-9 IgG1; SGAb25-9
EC50 (read off the curve) [2]: 0.1 to 0.2 nM | EC50 [6]: 0.1 nM | EC50 (read off the curve) [7]: 0.1 to 0.2 nM | EC50 (read off the curve) [8]: 0.1 to 0.2 nM | EC50 [9]: 0.25 nM | EC50 (read off the curve) [10]: 0.1 to 0.2 nM | Kd [11]: 0.1 nM | koff [11]: 2.7e-05 s⁻¹ | kon [11]: 210000 M⁻¹ s⁻¹ | EC50 (read off the curve) [12]: 0.1 to 0.2 nM | EC50 (read off the curve) [13]: ~0.8 nM | EC50 (read off the curve) [14]: ~1 nM

B5: SG25Ab-9 variant DH101K (antibody, V domains shown)
VH: QVQLVQSGAEVKKPGESLKISCKGSGYSSTSYWIGWVRQMPGKGLEWMGIIYPGDSDTRYSPSFQGQVTISADKSISTAYLQWSSLKASDTAMYYCARLGSYYAFKIWGRGTMVTVSS
VL: QSALTQPASVSASPGQSITISCTGTSSDVGAYIYVSWYQQLSGKPPKLILYDVSKRPSGISDRFSGSKSGNTASLTISGLQADDEADYYCSSYTRSSTWVFGGGTQLTVLG
EC50 (read off the curve) [8]: ~0.2 nM | Kd [11]: 0.2 nM | koff [11]: 0.0001 s⁻¹ | kon [11]: 420000 M⁻¹ s⁻¹ | EC50 (read off the curve) [14]: ~1 nM

B6: detuned CD25 antibody SG25Ab-9 YH98A (antibody, human IgG1, lambda, V domains shown)
VH: QVQLVQSGAEVKKPGESLKISCKGSGYSSTSYWIGWVRQMPGKGLEWMGIIYPGDSDTRYSPSFQGQVTISADKSISTAYLQWSSLKASDTAMYYCARLGSAYAFDIWGRGTMVTVSS
VL: QSALTQPASVSASPGQSITISCTGTSSDVGAYIYVSWYQQLSGKPPKLILYDVSKRPSGISDRFSGSKSGNTASLTISGLQADDEADYYCSSYTRSSTWVFGGGTQLTVLG
notes: IgG1; Tyr to Ala in CDR-H3 (YH98A); also called SGAb25-9 YH98A
EC50 [6]: ~116 nM | EC50 [9]: ~238 nM | Kd [11]: 14 nM | koff [11]: 0.0043 s⁻¹ | kon [11]: 310000 M⁻¹ s⁻¹ | Fold Change [15]: ~1160 | Fold Change [16]: ~950
